Data on 3 substances can be found in PMC2171039.

Assay [1] has as its target GST::PalC (Aspergillus nidulans). The assay is described as follows: pull-down.
Assay [2] deals with Vps32 (Aspergillus nidulans). The assay is described as follows: two-hybrid.
Chain of Vps32 (Aspergillus nidulans) (C8V487 whole entry): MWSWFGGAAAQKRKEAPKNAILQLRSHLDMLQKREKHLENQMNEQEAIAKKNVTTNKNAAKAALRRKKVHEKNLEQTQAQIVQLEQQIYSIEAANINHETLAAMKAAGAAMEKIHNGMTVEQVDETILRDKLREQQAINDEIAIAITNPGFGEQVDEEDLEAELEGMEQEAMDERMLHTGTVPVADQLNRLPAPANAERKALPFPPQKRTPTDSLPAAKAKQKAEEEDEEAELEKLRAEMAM

For the substance zz-Vps32 (natural protein), the stoichiometry N (mol of zz-Vps32 per mole of GST::PalC) in assay [1] came to 0.9. The substance PalC Arg442Ala (natural protein) returned a β-galactosidase activity, % of the wild type (% of the wild type) in assay [2] of 18.

Regarding PalC Arg442His (natural protein), the β-galactosidase activity, % of the wild type (% of the wild type) in assay [2] came to 11.
